# Test results reported in patent US20110091994A1, “Methods for Screening Compounds for Treating and/or Preventing an Hepatitis C Virus Infection” (priority 2008, published 2011).
# Like-named read-outs stand apart in the source and are kept apart here.
# Tests used:
# HCV proteins = target: T1, HCV proteins (Hepatitis C virus genotype 1b, UniProt Q9WMX2); test: Validation by Y2H pairwise matrices; type: binding;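 note: yeast two-hybrid pairwise tests of interactions first found in Y2H screens of HCV bait proteins against human cDNA libraries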
# T1 construct: expressed in transfected cells
# [1] = target: T2, HCV ORFs (Gal4-DB fusions) (Hepatitis C virus genotype 1b, UniProt Q9WMX2); type: binding, HCV genotype 1b, isolate con1; settings: human protein as prey
# T2 construct: expressed in transfected cells; host or cells: Saccharomyces cerevisiae MAV203 (IMAP1) / AH109 (IMAP2)
# [2] = test system: HCV ORFs (Gal4-DB fusions); type: binding, HCV genotype 1b, isolate con1; settings: human protein listed by gene symbol; the value names the HCV protein it interacts with
# [3] = validation of interaction with HCV protein NS3
# 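Throughout, for IMAP Y2H IMAP1 (number of IST): yeast two-hybrid screens using HCV genotype 1b proteins fused to Gal4-DB as baits against prey cDNA libraries from human spleen and foetal brain, IMAP1 via transformation and IMAP2 via mating.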
# 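Throughout, for IMAP Y2H IMAP2 (number of IST): yeast two-hybrid screens using HCV genotype 1b proteins fused to Gal4-DB as baits against prey cDNA libraries from human spleen and foetal brain, IMAP1 via transformation and IMAP2 via mating.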
# 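Throughout, for Interaction with viral protein: yeast two-hybrid screens using HCV genotype 1b proteins fused to Gal4-DB as baits against prey cDNA libraries from human spleen and foetal brain, IMAP1 via transformation and IMAP2 via mating.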
Molecule,Y2H matrices (HCV proteins; [3]),IMAP Y2H IMAP1 (number of IST) ([1]; HCV protein NS3 as bait),Interaction with viral protein [2],IMAP Y2H IMAP2 (number of IST) ([1]; HCV protein NS3 as bait),Y2H matrices (HCV proteins; validation of interaction with HCV protein CORE),IMAP Y2H IMAP1 (number of IST) ([1]; HCV protein CORE as bait)
"IQWD1 (protein, UniProt Q58WW2 1-860, looked up) DDB1- and CUL4-associated …: MSRGGSYPHLLWDVRKRSLGLEDPSRLRSRYLGRREFIQRLKLEATLNVHDGCVNTICWNDTGEYILSGSDDTKLVISNPYSRKVLTTIRSGHRANIFSAKFLPCTNDKQIVSCSGDGVIFYTNVEQDAETNRQCQFTCHYGTTYEIMTVPNDPYTFLSCGEDGTVRWFDTRIKTSCTKEDCKDDILINCRRAATSVAICPPIPYYLAVGCSDSSVRIYDRRMLGTRATGNYAGRGTTGMVARFIPSHLNNKSCRVTSLCYSEDGQEILVSYSSDYIYLFDPKDDTARELKTPSAEERREELRQPPVKRLRLRGDWSDTGPRARPESERERDGEQSPNVSLMQRMSDMLSRWFEEASEVAQSNRGRGRSRPRGGTSQSDISTLPTVPSSPDLEVSETAMEVDTPAEQFLQPSTSSTMSAQAHSTSSPTESPHSTPLLSSPDSEQRQSVEASGHHTHHQSDNNNEKLSPKPGTGEPVLSLHYSTEGTTTSTIKLNFTDEWSSIASSSRGIGSHCKSEGQEESFVPQSSVQPPEGDSETKAPEESSEDVTKYQEGVSAENPVENHINITQSDKFTAKPLDSNSGERNDLNLDRSCGVPEESASSEKAKEPETSDQTSTESATNENNTNPEPQFQTEATGPSAHEETSTRDSALQDTDDSDDDPVLIPGARYRAGPGDRRSAVARIQEFFRRRKERKEMEELDTLNIRRPLVKMVYKGHRNSRTMIKEANFWGANFVMSGSDCGHIFIWDRHTAEHLMLLEADNHVVNCLQPHPFDPILASSGIDYDIKIWSPLEESRIFNRKLADEVITRNELMLEETRNTITVPASFMLRMLASLNHIRADRLEGDRSEGSGQENENEDEE",+,2,NS3,,,
"KIF17 (protein, UniProt Q9P2E2 1-1029, looked up) Kinesin-like protein KIF17: MASEAVKVVVRCRPMNQRERELRCQPVVTVDCARAQCCIQNPGAADEPPKQFTFDGAYHVDHVTEQIYNEIAYPLVEGVTEGYNGTIFAYGQTGSGKSFTMQGLPDPPSQRGIIPRAFEHVFESVQCAENTKFLVRASYLEIYNEDVRDLLGADTKQKLELKEHPEKGVYVKGLSMHTVHSVAQCEHIMETGWKNRSVGYTLMNKDSSRSHSIFTISIEMSAVDERGKDHLRAGKLNLVDLAGSERQSKTGATGERLKEATKINLSLSALGNVISALVDGRCKHVPYRDSKLTRLLQDSLGGNTKTLMVACLSPADNNYDETLSTLRYANRAKNIRNKPRINEDPKDALLREYQEEIKKLKAILTQQMSPSSLSALLSRQVPPDPVQVEEKLLPQPVIQHDVEAEKQLIREEYEERLARLKADYKAEQESRARLEEDITAMRNSYDVRLSTLEENLRKETEAVLQVGVLYKAEVMSRAEFASSAEYPPAFQYETVVKPKVFSTTDTLPSDDVSKTQVSSRFAELPKVEPSKSEISLGSSESSSLEETSVSEAFPGPEEPSNVEVSMPTEESRSRYFLDECLGQEAAGHLLGEQNYLPQEEPQEVPLQGLLGLQDPFAEVEAKLARLSSTVARTDAPQADVPKVPVQVPAPTDLLEPSDARPEAEAADDFPPRPEVDLASEVALEVVRTAEPGVWLEAQAPVALVAQPEPLPATAGVKRESVGMEVAVLTDDPLPVVDQQQVLARLQLLEQQVVGGEQAKNKDLKEKHKRRKRYADERRKQLVAALQNSDEDSGDWVLLNVYDSIQEEVRAKSKLLEKMQRKLRAAEVEIKDLQSEFQLEKIDYLATIRRQERDSMLLQQLLEQVQPLIRRDCNYSNLEKILRESCWDEDNGFWKIPHPVITKTSLPVAVSTGPQNKPARKTSAADNGEPNMEDDRYRLMLSRSNSENIASNYFRSKRASQILSTDARKSLTHHNSPPGLSCPLSNNSAIPPTQAPEMPQPRPFRLESLDIPFTKAKRKKSKSNFGSEPL",+,2,NS3,,,
"KIF7 (protein, UniProt Q2M1P5 1-1343, looked up) Kinesin-like protein KIF7: MGLEAQRLPGAEEAPVRVALRVRPLLPKELLHGHQSCLQVEPGLGRVTLGRDRHFGFHVVLAEDAGQEAVYQACVQPLLEAFFEGFNATVFAYGQTGSGKTYTMGEASVASLLEDEQGIVPRAMAEAFKLIDENDLLDCLVHVSYLEVYKEEFRDLLEVGTASRDIQLREDERGNVVLCGVKEVDVEGLDEVLSLLEMGNAARHTGATHLNHLSSRSHTVFTVTLEQRGRAPSRLPRPAPGQLLVSKFHFVDLAGSERVLKTGSTGERLKESIQINSSLLALGNVISALGDPQRRGSHIPYRDSKITRILKDSLGGNAKTVMIACVSPSSSDFDETLNTLNYASRAQNIRNRATVNWRPEAERPPEETASGARGPPRHRSETRIIHRGRRAPGPATASAAAAMRLGAECARYRACTDAAYSLLRELQAEPGLPGAAARKVRDWLCAVEGERSALSSASGPDSGIESASVEDQAAQGAGGRKEDEGAQQLLTLQNQVARLEEENRDFLAALEDAMEQYKLQSDRLREQQEEMVELRLRLELVRPGWGGPRLLNGLPPGSFVPRPHTAPLGGAHAHVLGMVPPACLPGDEVGSEQRGEQVTNGREAGAELLTEVNRLGSGSSAASEEEEEEEEPPRRTLHLRRNRISNCSQRAGARPGSLPERKGPELCLEELDAAIPGSRAVGGSKARVQARQVPPATASEWRLAQAQQKIRELAINIRMKEELIGELVRTGKAAQALNRQHSQRIRELEQEAEQVRAELSEGQRQLRELEGKELQDAGERSRLQEFRRRVAAAQSQVQVLKEKKQATERLVSLSAQSEKRLQELERNVQLMRQQQGQLQRRLREETEQKRRLEAEMSKRQHRVKELELKHEQQQKILKIKTEEIAAFQRKRRSGSNGSVVSLEQQQKIEEQKKWLDQEMEKVLQQRRALEELGEELHKREAILAKKEALMQEKTGLESKRLRSSQALNEDIVRVSSRLEHLEKELSEKSGQLRQGSAQSQQQIRGEIDSLRQEKDSLLKQRLEIDGKLRQGSLLSPEEERTLFQLDEAIEALDAAIEYKNEAITCRQRVLRASASLLSQCEMNLMAKLSYLSSSETRALLCKYFDKVVTLREEQHQQQIAFSELEMQLEEQQRLVYWLEVALERQRLEMDRQLTLQQKEHEQNMQLLLQQSRDHLGEGLADSRRQYEARIQALEKELGRYMWINQELKQKLGGVNAVGHSRGGEKRSLCSEGRQAPGNEDELHLAPELLWLSPLTEGAPRTREETRDLVHAPLPLTWKRSSLCGEEQGSPEELRQREAAEPLVGRVLPVGEAGLPWNFGPLSKPRRELRRASPGMIDVRKNPL",+,1,NS3,,,
"L3MBTL3 (protein, UniProt Q96JM7 1-780, looked up) Lethal(3)malignant brain …: MTESASSTSGQEFDVFSVMDWKDGVGTLPGSDLKFRVNEFGALEVITDENEMENVKKATATTTWMVPTAQEAPTSPPSSRPVFPPAYWTSPPGCPTVFSEKTGMPFRLKDPVKVEGLQFCENCCQYGNVDECLSGGNYCSQNCARHIKDKDQKEERDVEEDNEEEDPKCSRKKKPKLSLKADTKEDGEERDDEMENKQDVRILRGSQRARRKRRGDSAVLKQGLPPKGKKAWCWASYLEEEKAVAVPAKLFKEHQSFPYNKNGFKVGMKLEGVDPEHQSVYCVLTVAEVCGYRIKLHFDGYSDCYDFWVNADALDIHPVGWCEKTGHKLHPPKGYKEEEFNWQTYLKTCKAQAAPKSLFENQNITVIPSGFRVGMKLEAVDKKNPSFICVATVTDMVDNRFLVHFDNWDESYDYWCEASSPHIHPVGWCKEHRRTLITPPGYPNVKHFSWDKYLEETNSLPAPARAFKVKPPHGFQKKMKLEVVDKRNPMFIRVATVADTDDHRVKVHFDGWNNCYDYWIDADSPDIHPVGWCSKTGHPLQPPLSPLELMEASEHGGCSTPGCKGIGHFKRARHLGPHSAANCPYSEINLNKDRIFPDRLSGEMPPASPSFPRNKRTDANESSSSPEIRDQHADDVKEDFEERTESEMRTSHEARGAREEPTVQQAQRRSAVFLSFKSPIPCLPLRWEQQSKLLPTVAGIPASKVSKWSTDEVSEFIQSLPGCEEHGKVFKDEQIDGEAFLLMTQTDIVKIMSIKLGPALKIFNSILMFKAAEKNSHNEL",+,4,NS3,8,,
"LPXN (protein, UniProt O60711 1-386, looked up) Leupaxin: MEELDALLEELERSTLQDSDEYSNPAPLPLDQHSRKETNLDETSEILSIQDNTSPLPAQLVYTTNIQELNVYSEAQEPKESPPPSKTSAAAQLDELMAHLTEMQAKVAVRADAGKKHLPDKQDHKASLDSMLGGLEQELQDLGIATVPKGHCASCQKPIAGKVIHALGQSWHPEHFVCTHCKEEIGSSPFFERSGLAYCPNDYHQLFSPRCAYCAAPILDKVLTAMNQTWHPEHFFCSHCGEVFGAEGFHEKDKKPYCRKDFLAMFSPKCGGCNRPVLENYLSAMDTVWHPECFVCGDCFTSFSTGSFFELDGRPFCELHYHHRRGTLCHGCGQPITGRCISAMGYKFHPEHFVCAFCLTQLSKGIFREQNDKTYCQPCFNKLFPL",,,CORE,,+,1
"LDB1 (protein, UniProt Q86U70 2-411, looked up) LIM domain-binding protein 1: SVGCACPGCSSKSFKLYSPKEPPNGNAFPPFHPGTMLDRDVGPTPMYPPTYLEPGIGRHTPYGNQTDYRIFELNKRLQNWTEECDNLWWDAFTTEFFEDDAMLTITFCLEDGPKRYTIGRTLIPRYFRSIFEGGATELYYVLKHPKEAFHSNFVSLDCDQGSMVTQHGKPMFTQVCVEGRLYLEFMFDDMMRIKTWHFSIRQHRELIPRSILAMHAQDPQMLDQLSKNITRCGLSNSTLNYLRLCVILEPMQELMSRHKTYSLSPRDCLKTCLFQKWQRMVAPPAEPTRQQPSKRRKRKMSGGSTMSSGGGNTNNSNSKKKSPASTFALSSQVPDVMVVGEPTLMGGEFGDEDERLITRLENTQFDAANGIDDEDSFNNSPALGANSPWNSKPPSSQESKSENPTSQASQ",+,1,NS3,,,
